Measured values reported in patent US20260167702A1 (Dana-Farber, published 2026).
Like-named read-outs stand apart in the source and are kept apart here.

Columns and labels:
[1] = target: T1, recombinant full length HA of A/Vietnam/1203/04 (H5-VN04) (influenza A virus A/Vietnam/1203/04 …)
[2] = target: full length HA of A/Vietnam/1203/04 (H5-VN04) expressed from pcDNA3.1 (on 293T cells and on pseudotyped … (influenza A virus A/Vietnam/1203/04)); test: cell-based or functional assay
[3] = target: T1, recombinant full length HA of …; test: BLI, IgG1 (legend of FIG. 15)
[4] = target: T1, recombinant full length HA of …; test: BLI (Octet RED96), IgG1, recombinant HA
[5] = target: T2, recombinant full length HA of A/Perth/16/09 (H3-PE09) (influenza A virus A/Perth/16/09 (H3N2)); test: BLI (Octet RED96), IgG1, recombinant HA
[6] = target: T2, recombinant full length HA of …; test: BLI, IgG1 ('further experiments', FIGS. 15A and 15B)
[7] = target: recombinant full length HA of A/mallard/Astrakhan/263/82 (H14-AS82) (influenza A virus …, UniProt P26136 18-568); test: BLI, purified recombinant HAs; antibody format not stated here
[8] = target: T1, recombinant full length HA of …; remark: listed apart in the source
[9] = target: T2, recombinant full length HA of …

B1: 3I14 IgG1 (wild type) (antibody, V domains shown)
VH: QVQLLESGGGVVQPGRSLRLSCAASGFTFSNYGMHWVRQAPGKGLEWVAIISFDGSKKYYANSVKGRSTISRDNSKNTLSLQMNSLGPEDTALYYCAKLPSPYYFDSRFVWVAASAFHFWGQGILVTVSS
VL: NFMLTQPPSASGTPGQRVTISCSGSSSNIGGNTVHWFQQLPGTAPKLLIYTNSLRPSGVPDRFSGSKSGTSASLAISGLQSEDEADYYCAAWDDSLNGQVFGGGTKLTVL
**Q.** With B1 as the binder, how does the Kd [1] read?
**A.** > 1 nM

**Q.** And the “IC50, neutralization of H5-VN04 pseudovirus” value [2]?
**A.** 0.0816 µg/mL

**Q.** What about the “IC50, neutralization of pseudovirus” value [2] of the same binder?
**A.** 2.14 µg/mL

**Q.** And the Kd [3]?
**A.** 1.15 nM

**Q.** And the Kd [4]?
**A.** 1.02 nM

**Q.** And the koff [4]?
**A.** 0.000387 s⁻¹

**Q.** And the kon [4]?
**A.** 327000 M⁻¹ s⁻¹

**Q.** And the Kd [5]?
**A.** 0.263 nM

**Q.** And the koff [5]?
**A.** 3.99e-05 s⁻¹

**Q.** And the kon [5]?
**A.** 152000 M⁻¹ s⁻¹

**Q.** What about the Kd [6] of the same binder?
**A.** 1.96 nM

**Q.** And the Kd [7]?
**A.** < 0.1 nM

**Q.** What about the Kd [8] of the same binder?
**A.** 1.02 nM

**Q.** What about the koff [8] of the same binder?
**A.** 0.000383 s⁻¹

**Q.** And the kon [8]?
**A.** 375000 M⁻¹ s⁻¹

**Q.** What about the Kd [9] of the same binder?
**A.** 0.263 nM

**Q.** What about the koff [9] of the same binder?
**A.** 3.99e-05 s⁻¹

**Q.** And the kon [9]?
**A.** 152000 M⁻¹ s⁻¹
